This is an account of results in US20030073199A1 (SCHERING, published 2003).

For data set [1], the target named is T1, AK155 receptor complex (α-subunit CPNM1 / IL-20Rα and β-subunit IL-10Rβ), endogenous on cell lines (UniProt Q9UHF4 30-553; Q08334 20-325, limits assumed).
T1 sequence (looked up) 1: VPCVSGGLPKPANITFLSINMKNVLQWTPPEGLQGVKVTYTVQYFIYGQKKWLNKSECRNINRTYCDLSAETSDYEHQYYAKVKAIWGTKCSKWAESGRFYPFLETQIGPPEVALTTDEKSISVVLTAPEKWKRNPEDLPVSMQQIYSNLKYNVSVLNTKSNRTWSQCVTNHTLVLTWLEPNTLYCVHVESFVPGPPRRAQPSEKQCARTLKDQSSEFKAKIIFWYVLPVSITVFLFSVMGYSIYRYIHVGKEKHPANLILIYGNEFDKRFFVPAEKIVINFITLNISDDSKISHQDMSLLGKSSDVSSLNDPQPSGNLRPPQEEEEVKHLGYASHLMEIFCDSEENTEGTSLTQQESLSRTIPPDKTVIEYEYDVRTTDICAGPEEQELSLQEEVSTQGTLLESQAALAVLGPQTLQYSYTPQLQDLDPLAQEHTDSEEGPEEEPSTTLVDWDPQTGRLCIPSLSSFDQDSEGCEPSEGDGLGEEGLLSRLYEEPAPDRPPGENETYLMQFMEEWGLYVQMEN
T1 sequence (looked up) 2: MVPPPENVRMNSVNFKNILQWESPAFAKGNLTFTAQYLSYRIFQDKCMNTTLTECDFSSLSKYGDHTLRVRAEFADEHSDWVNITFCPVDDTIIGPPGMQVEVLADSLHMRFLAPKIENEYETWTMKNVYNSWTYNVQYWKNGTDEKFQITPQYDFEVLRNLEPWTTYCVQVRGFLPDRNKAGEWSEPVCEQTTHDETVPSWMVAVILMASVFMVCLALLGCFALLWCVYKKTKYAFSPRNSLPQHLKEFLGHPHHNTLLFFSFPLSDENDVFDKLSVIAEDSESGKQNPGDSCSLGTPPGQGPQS
The data set is described as follows: cell-based or functional assay.

Data set [2] concerns the molecule itself. The data set is described as follows: SDS-PAGE and western blot of COS-7 cell extracts with and without denaturation (about 36 kDa against about 19 kDa). From the text: Further evidence for the dimeric state of AK155 was provided by analysis of AK155 extracted from mammalian cells. AK155 was cloned and expressed using the eukaryotic expression vector pME18S in COS-7 cells, where the protein was cloned with a FLAG sequence. The cells were extracted and the extracted protein was loaded as is, or heated with reductant, prior to loading on the electrophoresis gel. AK155 was not purified prior to analysis by SDS PAGE. Detection was by rabbit antiserum prepared against AK155 or by anti-FLAG monoclonal antibody.
Background: In western blotting, separated proteins are transferred to a membrane and probed.

B1: AK155 (preparation not stated) (ligand)
chain: KHKQSSFTKSCYPRGTLSQAVDALYIKAAWLKATIPEDRIKNIRLLKKKTKKQFMKNCQFQEQLLSFFMEDVFGQLQLQGCKKIRFVEDFHSLRQKLSHCISCASSAREMKSITRMKRIFYRIGNKGIYKAISELDILLSWIKKLLESSQ
With B1, the “fold increase of IL-8 concentration, HaCaT cells, with against without AK155” value in data set [1] is 5 fold.

B2: AK155 cloned with a FLAG sequence, expressed in COS-7 cells from pME18S (ligand, not shown: small tags and cut ends)
chain: B1 chain
notes: Analysed unpurified in COS-7 cell extracts; also called FLAG-tagged AK155
As to B2, the binding result in data set [2] is given as “binds”.
